Experimental data: doi:10.1101/2022.03.30.486221 (bioRxiv, 2022)

Biological target: the molecule itself
Experiment: SEC

B1: recombinant His6-tagged StTGA2.1 (natural protein, UniProt A0A9F1U434 1-270, looked up)
chain: MDAMGDREGPRLVSSTALWRGDRRPAQVVQVSQLEQDFQRAPQQRESGSLPFDTEYSRWLEEHTKHINELRTAVNSHASDPELRSMVDSVIAHYDEVYRMKANAAKGNVEHLLSGMWKTPAERCSMWIGDFRPSLLLKLLVNQVEPLTEQQLIGIVNLQQSSQQAEDALSQDMEAWQQSLEVTLAYGSLATEGSSGDAAYNISQMAMAMGILGTLEGFLRQADNLRQQTLQQMHRMLTTRQSARALLAISEYFSRLRALSSLWLARPREQ
B1 was tested, and the “stoichiometry N” value was 2.
